Measured values from US20060257938A1, “Method of screening for drugs that block ligand binding to a lipid binding protein” (priority 2005, published 2006).
Where “and” joins values, the source holds several entries; their conditions need not be identical. Identical values can stand only once.

Tests used:
Assay type in all cases: binding
[1] = Probe fluorescence ratio response to arachidonic acid relative to ADIFAB2; details: arachidonic acid; response relative to ADIFAB2
In short: (§1)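 Fluorescently labeled rat intestinal FABP variants were read at two emission wavelengths, near the unbound maximum (about 420 to 480 nm) and the FFA-bound maximum (about 495 to 580 nm). R = Fλ1/Fλ2 after subtracting probe-free intensity; ΔR = R+agent − R0, normalized to ADIFAB2 (rI-FABP-L72A).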

[2] = Probe fluorescence ratio response to linolenic acid relative to ADIFAB2; details: response relative to ADIFAB2
In short: as §1

[3] = Probe fluorescence ratio response to linoleic acid relative to ADIFAB2; details: response relative to ADIFAB2
In short: as §1

[4] = Probe fluorescence ratio response to oleic acid relative to ADIFAB2; details: response relative to ADIFAB2
In short: as §1

[5] = Probe fluorescence ratio response to palmitic acid relative to ADIFAB2; details: response relative to ADIFAB2
In short: as §1

[6] = Probe fluorescence ratio response to palmitoleic acid relative to ADIFAB2; details: response relative to ADIFAB2
Source text: (§2) In an alternate preferred embodiment, the protein is rI-FABP that has Ala substituted for Leu at position 72 (rI-FABP-L72A) with the resulting probe named ADIFAB2. […] Other probes useful in embodiments of the invention are shown in Tables 1-6 and are also described in U.S. application Ser. No. 11/085,792, filed Mar. 21, 2005 which is incorporated herein by reference. The indicated substitutions are with reference to the ADIFAB protein of SEQ ID NO: 2.
(§3) ADIFAB2 also has an altered spectral response, making it especially useful for measurements of FFAu in blood samples (Apple et al, Clinical Proteomics, (2004) 1:41-44, U.S. patent application Ser. No. 10/670,958). The wavelengths at the maximum intensities emitted by these fluorescently-labeled I-FABP's in the absence of FFA is about 420 to 480 nm. The emission wavelengths at the maximum intensities emitted by these fluorescently-labeled I-FABP's with FFA bound are between about 495 to 580 nm. Experiments typically involve measuring the fluorescence response within both emission maxima or at wavelengths for which the effect of interfering molecules such as hemoglobin can be eliminated as described in U.S. application Ser. No. 10/670958 and PCT/US2004/030521 and the calculation of the ratio ‘R’ of the two fluorescence intensities. The baseline value for this ratio, measured in the absence of analyte, is designated R0.
(§4) The intensity ratio (“R” value) is determined as follows. The ratio is calculated using the following formula: R=Fλ1/Fλ2 wherein, Fλ1 is the measured fluorescence intensities (intensity of sample with probe present minus intensity of sample without probe present) at wavelength 1 and Fλ2 is the measured fluorescence intensities (intensity of sample with probe present minus intensity of sample without probe present) at wavelength 2. Then, for a given probe, ΔR, the difference in R value between the measurement in the presence of the test compound (agent) and in the absence of the test compound (agent), is calculated as follows: ΔR=R+agent−R0 In some embodiments, the ΔR value may then be compared to some reference, for example, an agent with a known affinity for a given probe, by ΔR/ΔRreference. Measurements of fluorescence intensities are obtained using standard techniques.

[7] = Probe fluorescence ratio response to stearic acid relative to ADIFAB2; details: response relative to ADIFAB2
Source text: as §2, §3, §4

Molecule | DR/DR AA [1] | DR/DR LNA [2] | DR/DR LA [3] | DR/DR OA [4] | DR/DR PA [5] | DR/DR POA [6] | DR/DR SA [7]
72T 73V 74N (protein, listed as Rattus norvegicus, PEPTIDE (1)...(131) wild-type rat intestinal fatty acid binding protein) AFDGTWKVDRNENYEKFMEKMGINVVKRKLGAHDNLKLTITQEGNKFTVKESSNFRNIDVVFELGVDFAYSTVNGTELTGTWTMEGNKLVGKFKRVDNGKELIAVREISGNELIQTYTYEGVEAKRIFKKE | 2.484 | 2.362 | 2.407 | 2.491 | 2.250 | 2.816 | 1.942
72T 73V 74A (protein, listed as Rattus norvegicus, PEPTIDE (1)...(131) wild-type rat intestinal fatty acid binding protein) AFDGTWKVDRNENYEKFMEKMGINVVKRKLGAHDNLKLTITQEGNKFTVKESSNFRNIDVVFELGVDFAYSTVAGTELTGTWTMEGNKLVGKFKRVDNGKELIAVREISGNELIQTYTYEGVEAKRIFKKE | 2.180 | 2.597 | 2.435 | 1.950 | 2.362 | 3.011 | 1.146
72A 73W 74A (protein, listed as Rattus norvegicus, PEPTIDE (1)...(131) wild-type rat intestinal fatty acid binding protein) AFDGTWKVDRNENYEKFMEKMGINVVKRKLGAHDNLKLTITQEGNKFTVKESSNFRNIDVVFELGVDFAYSAWAGTELTGTWTMEGNKLVGKFKRVDNGKELIAVREISGNELIQTYTYEGVEAKRIFKKE | 0.892 | 2.093 | 1.466 | 0.933 | 1.942 | 3.016 | 0.330
72A 73W 74V (protein, listed as Rattus norvegicus, PEPTIDE (1)...(131) wild-type rat intestinal fatty acid binding protein) AFDGTWKVDRNENYEKFMEKMGINVVKRKLGAHDNLKLTITQEGNKFTVKESSNFRNIDVVFELGVDFAYSAWVGTELTGTWTMEGNKLVGKFKRVDNGKELIAVREISGNELIQTYTYEGVEAKRIFKKE | 1.768 | 2.752 | 2.338 | 1.574 | 2.525 | 3.856 | 0.602
18V 31A 73W 72A (protein, listed as Rattus norvegicus, PEPTIDE (1)...(131) wild-type rat intestinal fatty acid binding protein) AFDGTWKVDRNENYEKFVEKMGINVVKRKLAAHDNLKLTITQEGNKFTVKESSNFRNIDVVFELGVDFAYSAWDGTELTGTWTMEGNKLVGKFKRVDNGKELIAVREISGNELIQTYTYEGVEAKRIFKKE | 1.761 | 2.770 | 2.540 | 1.738 | 2.218 | 3.184 | 0.722
72A 73P 74V (protein, listed as Rattus norvegicus, PEPTIDE (1)...(131) wild-type rat intestinal fatty acid binding protein) AFDGTWKVDRNENYEKFMEKMGINVVKRKLGAHDNLKLTITQEGNKFTVKESSNFRNIDVVFELGVDFAYSAPVGTELTGTWTMEGNKLVGKFKRVDNGKELIAVREISGNELIQTYTYEGVEAKRIFKKE | 2.354 | 2.845 | 2.735 | 2.187 | 2.406 | 3.613 | 1.178
72V 73W 74S (protein, listed as Rattus norvegicus, PEPTIDE (1)...(131) wild-type rat intestinal fatty acid binding protein) AFDGTWKVDRNENYEKFMEKMGINVVKRKLGAHDNLKLTITQEGNKFTVKESSNFRNIDVVFELGVDFAYSVWSGTELTGTWTMEGNKLVGKFKRVDNGKELIAVREISGNELIQTYTYEGVEAKRIFKKE | 1.424 | 2.044 | 1.819 | 1.477 | 1.789 | 2.662 | 0.574
72V 73W 74N (protein, listed as Rattus norvegicus, PEPTIDE (1)...(131) wild-type rat intestinal fatty acid binding protein) AFDGTWKVDRNENYEKFMEKMGINVVKRKLGAHDNLKLTITQEGNKFTVKESSNFRNIDVVFELGVDFAYSVWNGTELTGTWTMEGNKLVGKFKRVDNGKELIAVREISGNELIQTYTYEGVEAKRIFKKE | 1.191 | 2.384 | 1.726 | 1.146 | 2.229 | 3.507 | 0.468
72G 73F 74E (protein, listed as Rattus norvegicus, PEPTIDE (1)...(131) wild-type rat intestinal fatty acid binding protein) AFDGTWKVDRNENYEKFMEKMGINVVKRKLGAHDNLKLTITQEGNKFTVKESSNFRNIDVVFELGVDFAYSGFEGTELTGTWTMEGNKLVGKFKRVDNGKELIAVREISGNELIQTYTYEGVEAKRIFKKE | 0.910 | 2.415 | 1.467 | 0.585 | 0.981 | 2.519 | 0.239
18I 31A 73F 72A (protein, listed as Rattus norvegicus, PEPTIDE (1)...(131) wild-type rat intestinal fatty acid binding protein) AFDGTWKVDRNENYEKFIEKMGINVVKRKLAAHDNLKLTITQEGNKFTVKESSNFRNIDVVFELGVDFAYSAFDGTELTGTWTMEGNKLVGKFKRVDNGKELIAVREISGNELIQTYTYEGVEAKRIFKKE | 1.314 and 1.296 | 2.318 and 2.203 | 1.732 and 1.652 | 0.950 and 0.995 | 1.515 and 1.372 | 2.730 and 2.522 | 0.404 and 0.406
18I 31Y 73V 72A (protein, listed as Rattus norvegicus, PEPTIDE (1)...(131) wild-type rat intestinal fatty acid binding protein) AFDGTWKVDRNENYEKFIEKMGINVVKRKLYAHDNLKLTITQEGNKFTVKESSNFRNIDVVFELGVDFAYSAVDGTELTGTWTMEGNKLVGKFKRVDNGKELIAVREISGNELIQTYTYEGVEAKRIFKKE | 1.801 | 2.176 | 2.242 | 1.818 | 1.615 | 2.088 | 1.047
18V 31A 73F 72A (protein, listed as Rattus norvegicus, PEPTIDE (1)...(131) wild-type rat intestinal fatty acid binding protein) AFDGTWKVDRNENYEKFVEKMGINVVKRKLAAHDNLKLTITQEGNKFTVKESSNFRNIDVVFELGVDFAYSAFDGTELTGTWTMEGNKLVGKFKRVDNGKELIAVREISGNELIQTYTYEGVEAKRIFKKE | 1.142 | 2.036 | 1.527 | 0.828 | 1.510 | 2.677 | 0.375
18I 31I 55M 73V 72A (protein, listed as Rattus norvegicus, PEPTIDE (1)...(131) wild-type rat intestinal fatty acid binding protein) AFDGTWKVDRNENYEKFIEKMGINVVKRKLIAHDNLKLTITQEGNKFTVKESSNMRNIDVVFELGVDFAYSAVDGTELTGTWTMEGNKLVGKFKRVDNGKELIAVREISGNELIQTYTYEGVEAKRIFKKE | 1.710 | 2.408 | 1.981 | 1.188 | 1.883 | 2.478 | 0.502
